Reference: the Human Domainome abundance scans (Beltran et al. 2025)
± gives the uncertainty stated by the source.

B1: Retinoic acid receptor beta, residues 85 to 161; numbered along this chain, P10826 (parent)
chain: YKPCFVCQDKSSGYHYGVSACEGCKGFFRRSIQKNMIYTCHRDKNCVINKVTRNRCQYCRLQKCFEVGMSKESVRND
B2: Dynamin-binding protein, residues 242 to 304; numbered along this chain, Q6XZF7 (parent)
chain: EEPGTYGVALYRFQALEPNELDFEVGDKIRILATLEDGWLEGSLKGRTGIFPYRFVKLCPDTR

Variants of: B1
Experiment: abundance fitness (aPCA) (normalised: wild type 0, dead -1); higher = more abundant; growth selection in yeast, the domain comes from the species named
Conditions: Homo sapiens

Row | Variant | abundance fitness
1 | E72C | -0.075 ± 0.081
2 | E72R | -0.151 ± 0.043
3 | E72L | -0.237 ± 0.051
4 | E72V | -0.163 ± 0.048
5 | E72N | 0.04 ± 0.07
6 | E72T | -0.004 ± 0.064
7 | E72H | -0.117 ± 0.12
8 | E72M | -0.098 ± 0.053
9 | E72W | -0.271 ± 0.068
10 | E72A | -0.113 ± 0.048
11 | E72I | -0.184 ± 0.14
12 | V74Q | -0.012 ± 0.066
13 | V74I | 0.036 ± 0.062
14 | V74C | 0.003 ± 0.064
15 | V74W | -0.14 ± 0.052
16 | V74T | -0.012 ± 0.064
17 | V74P | -0.068 ± 0.078
18 | V74N | -0.067 ± 0.086
19 | V74G | -0.081 ± 0.041
20 | V74Y | -0.297 ± 0.12
21 | V74F | -0.064 ± 0.081

Row | Variant | abundance fitness
22 | V74R | -0.188 ± 0.043
23 | V74M | -0.027 ± 0.059
24 | V74L | -0.018 ± 0.041
25 | V74D | 0.094 ± 0.072
26 | V74K | -0.219 ± 0.065
27 | V74H | -0.13 ± 0.15
28 | V74S | -0.035 ± 0.048
29 | K71N | -0.04 ± 0.095
30 | K71T | 0.067 ± 0.067
31 | K71E | 0.103 ± 0.048
32 | K71C | -0.148 ± 0.072
33 | K71R | -0.102 ± 0.041
34 | K71F | -0.189 ± 0.087
35 | K71Q | -0.007 ± 0.072
36 | K71S | -0.005 ± 0.051
37 | K71V | -0.151 ± 0.041
38 | K71A | -0.027 ± 0.053
39 | K71W | -0.139 ± 0.045
40 | K71P | -0.154 ± 0.089
41 | K71L | -0.027 ± 0.042
42 | K71D | -0.085 ± 0.066

Row | Variant | abundance fitness
43 | K71M | -0.104 ± 0.054
44 | K71I | -0.078 ± 0.099
45 | K71H | -0.24 ± 0.12
46 | K71Y | -0.216 ± 0.1
47 | K71G | -0.004 ± 0.038
48 | N76H | -0.144 ± 0.21
49 | N76P | 0.146 ± 0.066
50 | N76E | 0.194 ± 0.061
51 | N76Y | 0.046 ± 0.1
52 | N76R | -0.039 ± 0.046
53 | N76F | -0.012 ± 0.11
54 | N76A | 0.084 ± 0.054
55 | N76C | -0.105 ± 0.079
56 | N76I | -0.149 ± 0.13
57 | N76L | 0.013 ± 0.054
58 | N76D | 0.018 ± 0.079
59 | N76T | -0.15 ± 0.088
60 | N76Q | 0.058 ± 0.1
61 | N76V | 0.047 ± 0.054
62 | N76G | -0.048 ± 0.049
63 | N76S | 0.148 ± 0.053

Row | Variant | abundance fitness
64 | N76K | 0.01 ± 0.058
65 | N76M | -0.061 ± 0.082
66 | S73F | -0.016 ± 0.086
67 | S73Y | -0.231 ± 0.092
68 | S73E | 0.091 ± 0.046
69 | S73H | -0.061 ± 0.1
70 | S73P | 0.002 ± 0.068
71 | S73K | 0.131 ± 0.052
72 | S73M | 0.092 ± 0.055
73 | S73A | 0.1 ± 0.043
74 | S73Q | -0.043 ± 0.057
75 | S73L | 0.088 ± 0.04
76 | S73W | -0.091 ± 0.046
77 | S73D | 0.133 ± 0.056
78 | S73T | -0.106 ± 0.065
79 | S73R | 0.016 ± 0.034
80 | S73V | 0.001 ± 0.042
81 | S73G | 0.017 ± 0.034

Variants of: B2
Experiment: as above
Conditions: Homo sapiens

Row | Variant | abundance fitness
82 | V8F | -0.373 ± 0.075
83 | V8P | -0.865 ± 0.2
84 | D37R | -0.59 ± 0.092
85 | W39S | -0.56 ± 0.067
86 | W39I | -0.546 ± 0.075
87 | W39Q | -0.285 ± 0.17
88 | K28H | -0.044 ± 0.087
89 | K28S | -0.535 ± 0.074
90 | R30A | -0.155 ± 0.075
91 | R30W | -0.921 ± 0.24
92 | L10I | 0.028 ± 0.059
93 | L10H | -0.566 ± 0.12
94 | R12F | -0.91 ± 0.13
95 | R12S | -0.12 ± 0.051
96 | P60L | -0.434 ± 0.077
97 | C59G | -0.225 ± 0.048
98 | C59V | 0.024 ± 0.047
99 | C59T | -0.192 ± 0.085
100 | C59W | -0.324 ± 0.11
101 | L16K | -0.077 ± 0.25
102 | T48Q | -0.203 ± 0.12
103 | L35M | -0.413 ± 0.19

Row | Variant | abundance fitness
104 | L35T | -0.339 ± 0.082
105 | S43I | -0.539 ± 0.082
106 | L32T | -0.312 ± 0.073
107 | L32A | -0.866 ± 0.13
108 | Y6H | -0.498 ± 0.1
109 | Y6F | 0.071 ± 0.048
110 | E20G | -0.246 ± 0.057
111 | E20S | -0.468 ± 0.059
112 | L44C | -0.159 ± 0.076
113 | I29F | -0.561 ± 0.078
114 | I29G | -0.738 ± 0.087
115 | I29W | -0.823 ± 0.37
116 | E36N | -0.156 ± 0.067
117 | E36Q | -0.312 ± 0.24
118 | G49T | -0.829 ± 0.18
119 | G49Y | -0.805 ± 0.13
120 | G49P | -1.08 ± 0.33
121 | G49W | -0.601 ± 0.35
122 | R63F | -0.216 ± 0.089
123 | G42T | -0.997 ± 0.21
124 | F55H | -0.189 ± 0.041
125 | K57Y | -0.411 ± 0.059

Row | Variant | abundance fitness
126 | K57P | -0.746 ± 0.12
127 | I31G | -0.512 ± 0.077
128 | V56A | -0.521 ± 0.094
129 | V56C | -0.864 ± 0.12
130 | D27V | -0.934 ± 0.12
131 | D27S | -0.695 ± 0.078
132 | D27F | -0.799 ± 0.11
133 | R47P | -1.09 ± 0.4
134 | R47K | 0.115 ± 0.2
135 | R47E | 0.018 ± 0.11
136 | E1L | -0.041 ± 0.087
137 | E1I | 0.005 ± 0.077
138 | V25G | -0.539 ± 0.064
139 | V25T | -0.412 ± 0.086
140 | P52M | -0.401 ± 0.23
141 | P52S | -0.85 ± 0.074
142 | G38R | -0.482 ± 0.09
143 | R54L | -0.544 ± 0.091
144 | F23N | -0.805 ± 0.14
145 | G4R | -0.187 ± 0.059
146 | D61H | -0.145 ± 0.059
147 | D61E | 0.186 ± 0.095

Row | Variant | abundance fitness
148 | D61K | -0.096 ± 0.19
149 | T5Y | -0.214 ± 0.066
150 | E17T | -0.157 ± 0.074
151 | G26I | -0.744 ± 0.094
152 | A15S | 0.131 ± 0.048
153 | Q14V | -0.115 ± 0.054
154 | G7Y | -0.661 ± 0.1
155 | G7W | -1.27 ± 0.41
156 | G7P | -0.86 ± 0.25
157 | G7F | -0.734 ± 0.092
158 | L40P | -0.642 ± 0.12
159 | F51G | -0.85 ± 0.095
160 | F51N | -0.791 ± 0.094
161 | F51D | -0.862 ± 0.17
162 | F51W | -0.59 ± 0.16
163 | A33Y | -0.568 ± 0.095
164 | A33F | -0.726 ± 0.11
165 | G46W | -0.725 ± 0.12
166 | Y11L | -0.084 ± 0.056
167 | Y11P | -0.784 ± 0.16
